What all share (assay): SPR
In general terms: In SPR one partner is held on a chip, and binding of the other changes the refractive index at the surface.

Experiment [1] has as its target T1, Human C3dg-biotin (human, UniProt P01024 955-1303, biotin (site not stated) in the SPR experiments).
Experiment [2] deals with T1, Human C3dg-biotin. The source holds these as a separate data set.
Experiment [3] deals with T1, Human C3dg-biotin. This is another data set of the same source.
Experiment [4] addresses T1, Human C3dg-biotin. This is another data set of the same source.

Four molecules from patent publication US20080267980A1 (published 2008) can be followed below.

Read-outs that look alike come from different tables or passages of the source.

T1 sequence (P01024 955-1303): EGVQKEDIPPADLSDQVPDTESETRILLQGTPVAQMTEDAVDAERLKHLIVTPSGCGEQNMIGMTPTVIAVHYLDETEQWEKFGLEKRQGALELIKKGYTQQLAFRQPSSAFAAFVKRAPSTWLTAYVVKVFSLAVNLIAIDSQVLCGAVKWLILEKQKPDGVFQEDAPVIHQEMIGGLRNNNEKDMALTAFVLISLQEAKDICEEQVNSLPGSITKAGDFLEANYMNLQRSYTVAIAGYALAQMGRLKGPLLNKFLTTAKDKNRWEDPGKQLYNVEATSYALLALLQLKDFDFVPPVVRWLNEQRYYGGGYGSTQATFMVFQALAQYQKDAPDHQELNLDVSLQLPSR

B1: CD59-CR2 (other)
chain: LQCYNCPNPTADCKTAVNCSSDFDACLITKAGLQVYNKCWKFEHCNFNDVTTRLRENELTYYCCKKDLCNFNEQLENSSGGGGSGGGGSGGGGSISCGSPPPILNGRISYYSTPIAVGTVIRYSCSGTFRLIGEKSLLCITKDKVDGTWDKPAPKCEYFNKYSSCPEPIVPGGYKIRGSTPYRHGDSVTFACKTNFSMNGNKSVWCQANNMWGPTRLPTCVSVFPLECPALPMIHNGHHTSENVGSIAPGLSVTYSCESGYLLVGEKIINCLSSGKWSAVPPTCEEARCKSLGRFPNGKVKEPPILRVGVTANFFCDEGYRLQGPPSSRC
For B1, the affinity in the experiment with Human C3dg-biotin [1], expressed as Kd, was 451 nM.

B2: DAF-CR2 (other)
chain: DCGLPPDVPNAQPALEGRTSFPEDTVITYKCEESFVKIPGEKDSVICLKGSQWSDIEEFCNRSCEVPTRLNSASLKQPYITQNYFPVGTVVEYECRPGYRREPSLSPKLTCLQNLKWSTAVEFCKKKSCPNPGEIRNGQIDVPGGILFGATISFSCNTGYKLFGSTSSFCLISGSSVQWSDPLPECREIYCPAPPQIDNGIIQGERDHYGYRQSVTYACNKGFTMIGEHSIYCTVNNDEGEWSGPPPECRSSGGGGSGGGGSGGGGSISCGSPPPILNGRISYYSTPIAVGTVIRYSCSGTFRLIGEKSLLCITKDKVDGTWDKPAPKCEYFNKYSSCPEPIVPGGYKIRGSTPYRHGDSVTFACKTNFSMNGNKSVWCQANNMWGPTRLPTCVSVFPLECPALPMIHNGHHTSENVGSIAPGLSVTYSCESGYLLVGEKIINCLSSGKWSAVPPTCEEARCKSLGRFPNGKVKEPPILRVGVTANFFCDEGYRLQGPPSSRCVIAGQGVAWTKMPVC
In the case of B2, the Kd (in general, the concentration at which binding is half-saturated) with Human C3dg-biotin [2] was 2600 nM.

B3: CR2-DAF (other)
chain: ISCGSPPPILNGRISYYSTPIAVGTVIRYSCSGTFRLIGEKSLLCITKDKVDGTWDKPAPKCEYFNKYSSCPEPIVPGGYKIRGSTPYRHGDSVTFACKTNFSMNGNKSVWCQANNMWGPTRLPTCVSVFPLECPALPMIHNGHHTSENVGSIAPGLSVTYSCESGYLLVGEKIINCLSSGKWSAVPPTCEEARCKSLGRFPNGKVKEPPILRVGVTANFFCDEGYRLQGPPSSRCVIAGQGVAWTKMPVCGGGSGGGGSDCGLPPDVPNAQPALEGRTSFPEDTVITYKCEESFVKIPGEKDSVICLKGSQWSDIEEFCNRSCEVPTRLNSASLKQPYITQNYFPVGTVVEYECRPGYRREPSLSPKLTCLQNLKWSTAVEFCKKKSCPNPGEIRNGQIDVPGGILFGATISFSCNTGYKLFGSTSSFCLISGSSVQWSDPLPECREIYCPAPPQIDNGIIQGERDHYGYRQSVTYACNKGFTMIGEHSIYCTV
B3: the Kd in the experiment with Human C3dg-biotin [3] was 129 nM.

B4: CR2-CD59 (other)
chain: ISCGSPPPILNGRISYYSTPIAVGTVIRYSCSGTFRLIGEKSLLCITKDKVDGTWDKPAPKCEYFNKYSSCPEPIVPGGYKIRGSTPYRHGDSVTFACKTNFSMNGNKSVWCQANNMWGPTRLPTCVSVFPLECPALPMIHNGHHTSENVGSIAPGLSVTYSCESGYLLVGEKIINCLSSGKWSAVPPTCEEARCKSLGRFPNGKVKEPPILRVGVTANFFCDEGYRLQGPPSSRCVIAGQGVAWTKMPVCSGGGGSLQCYNCPNPTADCKTAVNCSSDFDACLITKAGLQVYNKCWKFEHCNFNDVTTRLRENELTYYCCKKDLCNFNEQLEN
B4 came in with a Kd with Human C3dg-biotin [4] of 15.5 nM. This lies in the double-digit nanomolar range.
